In this assay the target is ephrin-A1-S6 (human ephrin-A1 with an internal S6 peptide tag, GPI-anchored) (human) (UniProt P20827). Description: FRET or BRET; heteroFRET by flow cytometry (sensitised emission, compensated; efficiency from median fluorescence intensities); live HEK293 cells in suspension in DPBS + 0.5% BSA, S6-tagged receptor labelled with A547 and A647; for T-cadherin-S6 also followed in time after 10 μg/mL adiponectin. On the technique in general: In BRET a luciferase serves as donor, and the signal depends on an acceptor being close.

In the case of “ephrin-A1-S6 (human ephrin-A1 with an internal S6 peptide tag, GPI-anchored) (from UniProt P20827 19-182) (ligand)”, the FRET efficacy turned out to be 14%.

These data come from article PMC7359698.
